Measurements reported in the nanobody polyreactivity screen of Harvey et al. (2022).

test: yeast display, Sf9 membrane polyspecificity reagent, FACS + sequencing; frameworks hold sequencing errors
Outline: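 Nanobodies from a synthetic yeast display library (Saccharomyces cerevisiae BJ5465), induced 36–48 hours with galactose, were stained 1 hour at 4 °C with 10% biotinylated, detergent-solubilized Sf9 membrane reagent, enriched on streptavidin microbeads, then FACS-sorted. Anti-HA (expression) and streptavidin (reagent binding) fluorescence set low and high (top ~1%) gates. Polyreactivity labels come from the gate of origin. Genes were colony-PCR amplified, MiSeq 2 × 250 sequenced and filtered by CDR length.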

| Sequence | polyreactivity (PSR sort gate) |
| --- | --- |
| QVQLVESGGGLVQAGGSLRLSCAASGRIFYRYAMGWYRQAPGKERELVATITSGGRTKYADSVTGRFTIARDNAKNTVYLQMNSLKPEDTAVYYCNAYVYSGYSIRDYWGQGTQVTVSS | high polyreactivity |
| QVQLVESGGGLVQAGGSLRLSCAASGRIFYRYARGWYRQAPGKERELVAAITRGGRTNYADSVKGRFTISRDNAQNTVYLQMNSLKPEDTAVYYCRPLWYGFDYWGQGTQVTVSS | high polyreactivity |
| QVQLVESGGGLVQAGGSLRLSCAASGRIFYRYTMGWYRQAPGKERELVAVIRSGGRTYYADSVKGRFSISRDNAKNTLSLQMNSLKPEDTSVYYCATLVRVLTLRSDLNLYGYWGQGTQVTVSS | high polyreactivity |
| QVQLVESGGGLVQAGGSLRLSCAASGRIFYRYVMGWYRQAPGKERELVAAITSSGGSTYYADSVKGRFTISRDNAKHTVYLQMISLQPEDTAVYYCAADRYTRYRYNYWGQGTQVTVSS | high polyreactivity |
| QVQLVESGGGLVQAGGSLRLSCAASGRIFYSNAMGWYRPAPGKERELVAGITISGGSTYYADSVKGRFTISRDYAKNTVSLQMNSLKPEDTAVYYCNARYLRRGDYGGQGTQVTVSS | low polyreactivity |
| QVQLVESGGGLVQAGGSLRLSCAASGRIFYSNAMGWYRQAPGKERELVAAITGSGGRTHYADSVKGRFTISRDNAKNTVYLQMNSLKPEDTAVYYCAKDGYFPEFDYWGQGTKVTVSS | high polyreactivity |
| QVQLVESGGGLVQAGGSLRLSCAASGRIFYSNAMGWYRQAPGKERELVATISRGGSTYADSVKGRFTISRDNAKNTVYLQMNSLKPEDTAVYYCAAGLQGYPRKFNYWGQGTQVTVSS | low polyreactivity |
| QVQLVESGGGLVQAGGSLRLSCAASGRIFYSNAMGWYRQAPGKERELVATITYYADSVKGRFTISRDNAKNTVYLQMNSLKPEDTSVYYCAAVYLYYSRSDLYDYWGQGTQVTVSS | low polyreactivity |
| QVQLVESGGGLVQAGGSLRLSCAASGRIFYSNDLGWYRQAPGKERELVAAITSSGASTYYADSVKGRFTISRDNEKNTVYLQMNSLKPEDTAVYYCNVDIGVYAYESDYWGQGTQVTVSS | low polyreactivity |
| QVQLVESGGGLVQAGGSLRLSCAASGRIFYSYAMGWYRQAPGKEREFVAAIRWSGGRTYYADSVKGRFTISRDNAKNTVYLQMNSLKPEDTAVYYCAAELYGNNFWDGTTGYDYWGQGTEVTVSS | low polyreactivity |
| QVQLVESGGGLVQAGGSLRLSCAASGRIFYSYAMGWYRQAPGKERELVAAISRSGGRTYYADSVKGRFTISRDNAKNTVYLQMNSLKPEDTAVYYCNAYRPRFSTRVDYWGQGTQVTVSS | high polyreactivity |
| QVQLVESGGGLVQAGGSLRLSCAASGRIFYTKTMGWYRQAPGNEWELVAAIRSGTRTDYADSVKGRFTISRDNAKKTVYLQMNSLKPYDTAVSYCNKAAGVTGRYYYWGQGTQVTVSS | low polyreactivity |
| QVQLVESGGGLVQAGGSLRLSCAASGRIFYTNAMGWYRQAPGKERELVATISLRGGSTYYADSVKGRFTISRDNAKNTVYLQLNSLKPEDTAVYDCAARFWSVYSGNPTYPKYYWGQGTQVTVSS | high polyreactivity |
| QVQLVESGGGLVQAGGSLRLSCAASGRIFYTNGMGWYRQAPGKERELVAAITYSGGNTFYADSVKGRFTISRDNSKNTVYLQMNSLKPEDTAVYYCAATFTYLGYWYDYRGQGTQVTVSS | low polyreactivity |
| QVQLVESGGGLVQAGGSLRLSCAASGRIFYTYAMGRYRQAPGKERELVAVISSGGSTNYADSVKGRFTISRDTAKNNVYLQMNSLKPEDTAVYYCNADTGAADYFDFDYWGQGTQVTVSS | low polyreactivity |
| QVQLVESGGGLVQAGGSLRLSCAASGRIFYTYVMGWYRQAPGKERELVAAINRSGGTTYYADSVKGRFTISRDNAKNTGYLPMNSLKPEDTAVYYCNATLPDYWPYYYYQGGDDYWGQGTQVTVSS | low polyreactivity |
| QVQLVESGGGLVQAGGSLRLSCAASGRIFYVYAMGWYIKAPGKERELVAAITSSGGRTNYADSVKGRFTISRDNAKNTVYLQMNSLKPEDTAVYYCAAAYPWGDYGVSDYDYWGQGTQVTVSS | low polyreactivity |
| QVQLVESGGGLVQAGGSLRLSCAASGRIFYVYAMGWYRQAPGKERELVAAINWRGGSTYYADSVKGRFPISRDNAKNTVYLQMNSLKPEDTAVYYCAARWYLYDYWGQGTQVTVSS | low polyreactivity |
| QVQLVESGGGLVQAGGSLRLSCAASGRIFYVYTMGWYRQAPGKERELVAAISWSGGSTHYADSVKGRFTISRDNAKNTVYLQMNSLKPEDTAGYYCNKGVVSRVAFEYWGQGTQLTVSS | low polyreactivity |
| QVQLVESGGGLVQAGGSLRLSCAASGRIFYWNVMGWYRQAPGKERELVAAISSSGASTSYADSEKGRFTISRDNEKNTVYLQMNSLKPEVTAGYYCDARTRRNYRQYNYWGQATQVTVSS | high polyreactivity |
| QVQLVESGGGLVQAGGSLRLSCAASGRIFYWYAMGWYRQAPGKERELVAAISSAGTTYYADSVKGRFTISRDNAKNTVYLQMNSLKPEDTAVYYCAATLGFYRRSEYDYWGQGTQVTVSS | high polyreactivity |
| QVQLVESGGGLVQAGGSLRLSCAASGRIFYWYAMGWYRQAPGKERELVATINSGGSTTYADSVKGRFTISRDNAKNTVYLQMNSLKPEDTAVYYCARQRTVKKYYYWGQGTQVTVSS | high polyreactivity |

| Sequence | polyreactivity (PSR sort gate) |
| --- | --- |
| QVQLVESGGGLVQAGGSLRLSCAASGRIFYWYTMGWYRQAPGKERELVASISGSGGSTYYADSVKGRFTISRDNAKNTVYLQMNSLKPEDTAVYYCNKGSRWLRGLDYWGQGTQVTVSS | high polyreactivity |
| QVQLVESGGGLVQAGGSLRLSCAASGRIFYWYVMGWYIQAPGKERELVATIRYSGGNTYYADSVKGRFTISRDNAKNTVYLQMNSLKPEDTAVYYCAAGSLYWGRSPTRGGQGGYWGQGTQVTVSS | high polyreactivity |
| QVQLVESGGGLVQAGGSLRLSCAASGRIFYYNAMGWYRPAPGKERELVAAITYIGGNTHYADSVKGRFTISRDNAKYTVYLQMNSLKPEDTAVYYCARGTVLGFYYEYGYWGQGTQVTVSS | low polyreactivity |
| QVQLVESGGGLVQAGGSLRLSCAASGRIFYYNAMGWYRQAPGKERELVAAISYTSGRTYYADSVKGRFTISRDNAKNTVYLQMNSLKPEDTAVYYCAADYYLRKGMDYWGQVTQVTVSS | low polyreactivity |
| QVQLVESGGGLVQAGGSLRLSCAASGRIFYYNAMGWYRQAPGKERELVAAITSGGSTNYADSVKGRFTISRDNAKNTVYLQMNSLNPEDTAVYYCAADYYYYVAGVHYDYWGQGTLVTVSS | low polyreactivity |
| QVQLVESGGGLVQAGGSLRLSCAASGRIFYYNAMGWYRQAPRKERELVASITGSGGSTYYADSVKGRFTISRDNAKNTVYLQMNSLKPEDSAVYYCAKREYLYRYYYVAKYDYWGQGTQVSVSS | low polyreactivity |
| QVQLVESGGGLVQAGGSLRLSCAASGRIFYYNPMGWYRQAPGKERELVAAITKSGGRTYYADSVKGRFTISRDNSKNTVYLQMYSLKPEDTAVYYCAALSRAGEYDYWGQGTQVTVSS | high polyreactivity |
| QVQLVESGGGLVQAGGSLRLSCAASGRIFYYNSMGWYREAPGKERELVAAIRSGGGSTYYADSVKGRFTISRDNAKNTVYLQMNSLKPEDTAVYYCAAEPSQRYPWSGYDYWGQGTQVTVSS | low polyreactivity |
| QVQLVESGGGLVQAGGSLRLSCAASGRIFYYNVMGWYRQAPGKEREFVAAISTRTGSTYYADSVKGRFTISRDNAKNTVYLQMNSLKPEDTAVYYCAAPYRAYSYDYWGQGTQVTVSS | high polyreactivity |
| QVQLVESGGGLVQAGGSLRLSCAASGRIFYYNVMGWYRQAPGKERELVASISYSSTRTYYADSVKGRFTISRDNAKNTVYLQMNSLKPEDTAVYYCAVDTYAYRGVSYWSERTYYYWGQGTQVTVSS | low polyreactivity |
| QVQLVESGGGLVQAGGSLRLSCAASGRIFYYYAMAWYRQAPGKERELVAAITRRGGSTYYADSVKGRFTISRDIAKNTVYFQMNSLKPEDTAVYYCAKPDRTGWLDGDYWGQGTQVTVSS | low polyreactivity |
| QVQLVESGGGLVQAGGSLRLSCAASGRIFYYYAMGRYRQAPGKERELVAAITQSGGSTYYADSVKGRFTISRDNAKNTVYLQMNSLKPEDTAVYYCNAVLSSNTKWRYPGDYWGQGTQVTVSS | low polyreactivity |
| QVQLVESGGGLVQAGGSLRLSCAASGRIFYYYAMGWYREAPGKEREFVARNRSSGGSTYADSVKGRFTISRDNAKNTVYLQMNSLKPEDTAVYYCARDGYTAVEYDYWGQGTQVTVSS | low polyreactivity |
| QVQLVESGGGLVQAGGSLRLSCAASGRIFYYYAMGWYRQAPGKEREFVAAITGRGGSTYYADSVKGRFTISRDNAKNTVYLQMNSLKPEDTAVYYCNAGQYFEYYGWYSRYGYWGQGTQVTVSS | low polyreactivity |
| QVQLVESGGGLVQAGGSLRLSCAASGRIFYYYAMGWYRQAPGKEREFVAAITGRGGSTYYADSVKGRFTISRDNEKNTVYLQMYSLKPEDTAVYYCNAGQYFEYYGWYSRYGYWGQGTQVTVSS | low polyreactivity |
| QVQLVESGGGLVQAGGSLRLSCAASGRIFYYYAMGWYRQAPGKERELVAAINRSGGSTYYADSVKGRFTISRDNAKNTVYLQMNSLKPEDTAVYYCASYDYWGQGTQVTVSS | high polyreactivity |
| QVQLVESGGGLVQAGGSLRLSCAASGRIFYYYAMGWYRQAPGKERELVAAISQRGGRTYYADSVKGRFTISRDNAKNTVYLQMYSLNQEDPAVYYCNVAGVVYPWYYYWGQGTQVTVSS | high polyreactivity |
| QVQLVESGGGLVQAGGSLRLSCAASGRIFYYYAMGWYRQAPGKERELVAGIDSGDSTNYADSVKGRFTISRDNAKNTVYLQLNSLKPEDTAVYYCAALHYGGYFSYYPYYYWGQGTQVTVSS | low polyreactivity |
| QVQLVESGGGLVQAGGSLRLSCAASGRIFYYYAMGWYRQAPGKERELVATISRAGITNYADSVKGRFTISRDNAKNTVYLQMNSLKPEDTAVYYCADTFYPWRYNYEYWGQGTQVTVSS | high polyreactivity |
| QVQLVESGGGLVQAGGSLRLSCAASGRIFYYYAMGWYRQAPGKERELVAVISRGGRTKYADSVKGRFTISRDNAKNTVYLQMNSLKPEDTAFYYCAAYPSYYGDSGLRYDYWGQGTQVPVSS | high polyreactivity |
| QVQLVESGGGLVQAGGSLRLSCAASGRIFYYYAMGWYRQAPGTERELVASINSVGTTTYADSVKGRFTISRDNAKNTVYLEMNSLKPEDTAVYYCARDTGSIYYDGYEYDYWGQGTQVTVSS | low polyreactivity |
